Experiments:
[1] = system: D-galactosamine-sensitized Balb/c mice; assay: Histology of organs of D-galactosamine-sensitized Balb/c mice; assay type: in vivo; settings: 1 mg/mouse i.p. plus D-gal, 7 hours
Experimental: To further assess the lethality of the HMGB1 B box protein in vivo the HMGB1 B box was again administered to D-galactosamine-sensitized Balb/c mice. Mice (3 per group) received D-gal (20 mg/mouse) plus B box or vector (1 mg/mouse) intraperitoneally for 7 hours and were then sacrificed by decapitation. Blood was collected, and organs (liver, heart, kidney and lung) were harvested and fixed in 10% formaldehyde. Tissue sections were prepared with hematoxylin and eosin staining for histological evaluation (Criterion Inc., Vancouver, Canada). […] In FIG. 4J, hepatocyte dropouts are seen surrounded by accumulated polymorphonuclear leukocytes. The arrows in FIG. 4J point to the sites of polymorphonuclear accumulation (dotted) or apoptotic hepatocytes (solid).

[2] = system: Murine macrophage-like RAW 264.7 cells; assay: TNF release from RAW 264.7 cells (L929 cytotoxicity bioassay); assay type: cell-based; settings: for TNF release, dose dependence: B box 0-10 μg/ml, 8 hours (FIG. 2A)
Experimental: (§1) Murine macrophage-like RAW 264.7 cells (American Type Culture Collection, Rockville, Md.) were cultured in RPMI 1640 medium (Life Technologies, Grand Island N.Y.) supplemented with 10% fetal bovine serum (Gemini, Catabasas, Calif.), penicillin and streptomycin (Life Technologies) and were used at 90% confluence in serum-free Opti-MEM I medium (Life Technologies, Grand Island, N.Y.). […] Polymyxin B was not used in experiments of synthetic peptide studies.
TNF release was measured by a standard murine fibroblast L929 (ATCC, American Type Culture Collection, Rockville, Md.) cytotoxicity bioassay (Bianchi et al., Journal of Experimental Medicine 183:927-936, 1996) with the minimum detectable concentration of 30 pg/ml. Recombinant mouse TNF was obtained from R&D system Inc., (Minneapolis, MN). Murine fibroblast L929 cells (ATCC) were cultured in DMEM (Life Technologies, Grand Island, N.Y.) supplemented with 10% fetal bovine serum (Gemini, Catabasas, Calif.), penicillin (50 units/ml) and streptomycin (50 μg/ml) (Life Technologies) in a humidified incubator with 5% CO2.
The effect of the mutants on TNF release from Murine macrophage-like RAW 264.7 cells (ATCC) was carried out as follows. RAW 264.7 cells were cultured in RPMI 1640 medium (Life Technologies, Grand Island N.Y.) supplemented with 10% fetal bovine serum (Gemini, Catabasas, Calif.), penicillin and streptomycin (Life Technologies). Polymyxin (Sigma, St. Louis, Mo.) was added at 100 units/ml to suppress the activity of any contaminating LPS. Cells were incubated with 1 μg/ml of full length (wild-type) HMGB1 and each HMGB1 mutant protein in Opti-MEM I medium for 8 hours, and conditioned supernatants (containing TNF which had been released from the cells) were collected and TNF released from the cells was measured by a standard murine fibroblast L929 (ATCC) cytotoxicity bioassay (Bianchi et al., supra) with the minimum detectable concentration of 30 pg/ml. Recombinant mouse TNF was obtained from R & D Systems Inc., (Minneapolis, Minn.) and used as control in these experiments. Data in FIG. 1 are all presented as mean+SEM unless otherwise indicated. (=6−10).
(§2) To further examine the effect of HMGB1 B box on cytokine production, varying amounts of HMGB1 B box were evaluated for the effects on TNF, IL-1B, and IL-6 production in murine macrophage-like RAW 264.7 cells. Conditioned media were harvested and measured for TNF, IL-1β and IL-6 levels. TNF levels were measured as described herein, and IL-1β and IL-6 levels were measured using the mouse IL-1β and IL-6 enzyme-linked immunosorbent assay (ELISA) kits (R&D System Inc., Minneapolis, 1) and N>5 for all experiments.
The kinetics of B box-induced TNF release was also examined. TNF release and TNF mRNA expression was measured in RAW 264.7 cells induced by B box polypeptide or GST tag polypeptide only used as a control (vector) (10 μg/ml) for 0 to 48 hours. Supernatants were analyzed for TNF protein levels by an L929 cytotoxicity assay (N=3-5) as described herein. For mRNA measurement, cells were plated in 100 mm plate and treated in Opti-MEM I medium containing B box polypeptide or the vector alone for 0, 4, 8, or 24 hours, as indicated in FIG. 2D. The vector only sample was assayed at the 4 hour time point. Cells were scraped off the plate and total RNA was isolated by RNAzol B method in accordance with the manufacturer's instructions (Tel-Test “B”, Inc., Friendswood, Tex.). TNF (287 bp) was measured by RNase protection assay (Ambion, Austin, Tex.). Equal loading and the integrity of RNA was verified by ethidium bromide staining of the RNA sample on agarose-formaldehyde gel. […] TNF mRNA expression was maximal at 4 hours and decreased at 8 and 24 hours. […] A similar study was carried out measuring TNF protein released from RAW 264.7 cells 0, 4, 8, 24, 32 or 48 hours after administration of B box or vector only (GST tag), using the L929 cytotoxicity assay described herein. […] Data are representative of three separate experiments. […]

[3] = system: RAW 264.7 cells; assay: IL-1β release from RAW 264.7 cells (ELISA); assay type: cell-based, murine; settings: B box 0-10 μg/ml, 8 hours (FIG. 2B)
Experimental: as §1, §2

[4] = system: C3H/HeJ mice; assay: Lethality and histology in C3H/HeJ mice; assay type: in vivo
Excerpt: Male 6-8 week old Balb/c and C3H/HeJ mice were purchased from Harlen Sprague-Dawley (Indianapolis, Ind.) and were allowed to acclimate for 7 days before use in experiments. All animals were housed in the North Shore University Hospital Animal Facility under standard temperature, and a light and dark cycle.

B1: B box: Recombinant GST-system human HMGB1 mutant containing only the B box, 74 amino acids, SEQ ID NO: 20 (protein, listed as Homo sapiens)
chain: FKDPNAPKRLPSAFFLFCSEYRPKIKGEHPGLSIGDVAKKLGEMWNNTAADDKQPYEKKAAKLKEKYEKDIAAY
modifications: GST system
- histology of heart [1]: some ischemic changes and loss of cross striation in myocardial fibers
- histology of kidneys and lungs [1]: no abnormality
- histology of liver [1]: active hepatitis
- TNF release ([2]; 1 μg/ml protein, 8 hours, RAW 264.7 cells (FIG. 1)): potent activator of monocyte TNF release
- time of maximum TNF protein release ([2]; 10 μg/ml): ≤ 8 h
- TNF protein expression/release versus medium only ([2]; 10 μg/ml, 0 to 48 hours): stimulated TNF protein expression
- TNF release, dose dependence [2]: increased with increased amounts of B box
- TNF release, dose dependence ([2]; listed as HMGB1 B box): dose-dependently stimulated release
- IL-1β release, dose dependence [3]: addition of 1 μg/ml or 10 μg/ml of B box resulted in increased release
- IL-1β release, dose dependence ([3]; listed as HMGB1 B box): dose-dependently stimulated release
- histology of heart ([4]; 8 hours after administration): evidence of ischemia with loss of cross striation
- histology of liver ([4]; 8 hours after administration): mild acute inflammatory responses
- histology of lung and kidney ([4]; 8 hours after administration): no abnormal morphologic changes
- lethality ([4]; C3H/HeJ mice (do not respond to endotoxin)): lethal

Reference: patent US20060121047A1, “Use of hmgb polypetides for increasing immune responses” (priority 2002, published 2006)
